# Test results taken from FireProtDB (doi:10.1093/protein/7.9.1089).
# Where “and” joins values, the source holds several entries; their conditions need not be identical. Equal values may be shown once.
# B1: Ribonuclease wild type, P00648 (protein)
# chain: MMKMEGIALKKRLSWISVCLLVLVSAAGMLFSTAAKTETSSHKAHTEAQVINTFDGVADYLQTYHKLPDNYITKSEAQALGWVASKGNLADVAPGKSIGGDIFSNREGKLPGKSGRTWREADINYTSGFRNSDRILYSSDWLIYKTTDHYQTFTKIR
# Conditions: Bacillus amyloliquefaciens, pH 4.4, Thermal, DSC, Sodium acetate/Acetic acid 6.08 mM/13.92 mM/, reversible: yes (>95%), whole UniProt chain shown
protein,measurement,setting,value
B1,heat capacity change of unfolding,25 °C,1.6 kcal/mol/K
same,unfolding free energy,25 °C,8.69 kcal/mol and 8.66 kcal/mol
same,Tm,,51.5 °C and 51.6 °C
same,unfolding enthalpy (calorimetric),,128 kcal/mol
same,unfolding enthalpy (van 't Hoff),,128 kcal/mol and 129 kcal/mol
